# Experimental data: the supplement of paper PMC10567573
# B1: TRIM14 (parent)
# chain: YARTPTLDPDTMHARLRLSADRLT
# Variants of: B1
# Assay: protein stability index of a GFP-peptide fusion (GPS, HEK-293T) (PSI 1-6); higher = more stable
# Details: c terminus: a fixed tail appended
# 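Further: lentivirally expressed fusions sorted by FACS into six bins by GFP to DsRed ratio, PSI derived from sequencing read proportions per bin multiplied by bin number.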
row,Variant,protein stability index
1,YARTPTLDPDTMHARLRLSADRYT [L23Y],2.44
2,YARTPTLDPDTMHARLRLSADRAT [L23A],2.96
3,YARTPTLDPDTMHARLRLSADRNT [L23N],2.87
4,YARTPTLDPDTMHARLRLSADRKT [L23K],3.43
5,YARTPTLDPDTMHARLRLSADRET [L23E],4.03
6,YARTPTLDPDTMHARLRLSADRWT [L23W],2.03
7,YARTPTLDPDTMHARLRLSADRCT [L23C],2.51
8,YARTPTLDPDTMHARLRLSADRRT [L23R],3.21
9,YARTPTLDPDTMHARLRLSADRPT [L23P],2.67
10,YARTPTLDPDTMHARLRLSADRIT [L23I],2.62
11,YARTPTLDPDTMHARLRLSADRHT [L23H],3.21
12,YARTPTLDPDTMHARLRLSADRGT [L23G],2.58
13,YARTPTLDPDTMHARLRLSADRDT [L23D],3.38
14,YARTPTLDPDTMHARLRLSADRMT [L23M],3.06
15,YARTPTLDPDTMHARLRLSADRST [L23S],2.73
16,YARTPTLDPDTMHARLRLSADRTT [L23T],2.55
17,YARTPTLDPDTMHARLRLSADRQT [L23Q],3.12
18,YARTPTLDPDTMHARLRLSADRFT [L23F],2.13
19,YARTPTLDPDTMHARLRNSADRLT [L18N],3.3
20,YARTPTLDPDTMHARLRWSADRLT [L18W],2.18
21,YARTPTLDPDTMHARLRGSADRLT [L18G],2.06
22,YARTPTLDPDTMHARLRFSADRLT [L18F],2.04
23,YARTPTLDPDTMHARLRVSADRLT [L18V],2.62
24,YARTPTLDPDTMHARLRDSADRLT [L18D],3.38

row,Variant,protein stability index
1,YARTPTLDPDTMHARLRMSADRLT [L18M],2.65
2,YARTPTLDPDTMHARLRPSADRLT [L18P],3.34
3,YARTPTLDPDTMHARLRASADRLT [L18A],3.6
4,YARTPTLDPDTMHARLRSSADRLT [L18S],2.87
5,YARTPTLDPDTMHARLRTSADRLT [L18T],2.42
6,YARTPTLDPDTMHARLRHSADRLT [L18H],2.82
7,YARTPTLDPDTMHARLRKSADRLT [L18K],2.51
8,YARTPTLDPDTMHARLRRSADRLT [L18R],2.81
9,YARTPTLDPDTMHARLRESADRLT [L18E],3.06
10,YARTPTLDPDTMHARLRQSADRLT [L18Q],2.65
11,YARTPTLDPDTMHARLRYSADRLT [L18Y],2.93
12,YARTPTLDPDTMHARLRISADRLT [L18I],2.78
13,YARTPTLDPDTMHARLRCSADRLT [L18C],2.62
14,YARTPTLDPDTMHARLRLSADRLF [T24F],1.65
15,YARTPTLDPDTMHARLRLSADRLD [T24D],3.87
16,YARTPTLDPDTMHARLRLSADRLV [T24V],2.21
17,YARTPTLDPDTMHARLRLSADRLA [T24A],2.82
18,YARTPTLDPDTMHARLRLSADRLM [T24M],2.48
19,YARTPTLDPDTMHARLRLSADRLI [T24I],2.84
20,YARTPTLDPDTMHARLRLSADRLC [T24C],2.51
21,YARTPTLDPDTMHARLRLSADRLG [T24G],3.09
22,YARTPTLDPDTMHARLRLSADRLY [T24Y],2.08
23,YARTPTLDPDTMHARLRLSADRLS [T24S],2.54
24,YARTPTLDPDTMHARLRLSADRLR [T24R],3.13

row,Variant,protein stability index
1,YARTPTLDPDTMHARLRLSADRLQ [T24Q],2.67
2,YARTPTLDPDTMHARLRLSADRLP [T24P],2.17
3,YARTPTLDPDTMHARLRLSADRLW [T24W],1.73
4,YARTPTLDPDTMHARLRLSADRLK [T24K],3.2
5,YARTPTLDPDTMHARLRLSADRLH [T24H],2.39
6,YARTPTLDPDTMHARLRLSADRLN [T24N],2.92
7,YARTPTLDPDTMHARLRLSADRLL [T24L],1.76
8,YARTPTLDPDTMHARLRLSADRLE [T24E],3.02
9,YARTPTLDPDTMHARYRLSADRLT [L16Y],2.19
10,YARTPTLDPDTMHARQRLSADRLT [L16Q],2.93
11,YARTPTLDPDTMHARMRLSADRLT [L16M],2.67
12,YARTPTLDPDTMHARWRLSADRLT [L16W],2.56
13,YARTPTLDPDTMHARTRLSADRLT [L16T],3.02
14,YARTPTLDPDTMHARVRLSADRLT [L16V],2.49
15,YARTPTLDPDTMHARRRLSADRLT [L16R],3.27
16,YARTPTLDPDTMHARNRLSADRLT [L16N],2.57
17,YARTPTLDPDTMHARPRLSADRLT [L16P],2.94
18,YARTPTLDPDTMHARSRLSADRLT [L16S],3.52
19,YARTPTLDPDTMHARLRLSVDRLT [A20V],1.96
20,YARTPTLDPDTMHARLRLSLDRLT [A20L],2.04
21,YARTPTLDPDTMHARLRLSPDRLT [A20P],2.6
22,YARTPTLDPDTMHARLRLSFDRLT [A20F],1.61
23,YARTPTLDPDTMHARLRLSTDRLT [A20T],2.5
24,YARTPTLDPDTMHARLRLSMDRLT [A20M],2.35

row,Variant,protein stability index
1,YARTPTLDPDTMHARLRLSNDRLT [A20N],2.55
2,YARTPTLDPDTMHARLRLSKDRLT [A20K],3.38
3,YARTPTLDPDTMHARLRLSRDRLT [A20R],1.49
4,YARTPTLDPDTMHARLRLSYDRLT [A20Y],2.18
5,YARTPTLDPDTMHARLRLSDDRLT [A20D],2.83
6,YARTPTLDPDTMHARLRLSEDRLT [A20E],3.03
7,YARTPTLDPDTMHARLRLSWDRLT [A20W],3.31
8,YARTPTLDPDTMHARLRLSSDRLT [A20S],3.14
9,YARTPTLDPDTMHARLRLSCDRLT [A20C],2.14
10,YARTPTLDPDTMHARLRLSQDRLT [A20Q],1.84
11,YARTPTLDPDTMHARLRLSGDRLT [A20G],2.37
12,YARTPTLDPDTMHARLRLSHDRLT [A20H],2.56
13,YARTPTLDPDTMHARLRLSIDRLT [A20I],2.85
14,YARTPTLDPDTMHARLRLSAWRLT [D21W],1.62
15,YARTPTLDPDTMHARLRLSAARLT [D21A],2.43
16,YARTPTLDPDTMHARLRLSAGRLT [D21G],2.08
17,YARTPTLDPDTMHARLRLSACRLT [D21C],2.77
18,YARTPTLDPDTMHARLRLSAPRLT [D21P],2.06
19,YARTPTLDPDTMHARLRLSAQRLT [D21Q],2.91
20,YARTPTLDPDTMHARLRLSAFRLT [D21F],2.34
21,YARTPTLDPDTMHARLRLSAIRLT [D21I],1.23
22,YARTPTLDPDTMHARLRLSALRLT [D21L],1.8
